Experimental data taken from the supplement of paper PMC9112550, “Optimization of the antimicrobial peptide Bac7 by deep mutational scanning” (BMC Biology, 2022).
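Further: peptides expressed intracellularly from a pBAD plasmid library in pooled LB shake-flask culture, induced with 0.3% L-arabinose, DNA abundance read by NGS, three biological replicates, DESeq2 with apeglm shrinkage.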

What follows are sequences tested on Escherichia coli TOP10 (assay: shrunken log2 fold change of peptide-encoding DNA abundance (4.5 h post-induction vs induction); higher = less antimicrobial activity (less host growth inhibition)). Details: time post-induction: 4.5 h; library: site-saturation at positions 5, 18, 19, 20.
RRIRIRPPRLPRPRPRPEQKPRP was tested, and the “shrunken log2 fold change” value was 2.45.
In the case of RRIRFRPPRLPRPRPRPYLAPRP, the “shrunken log2 fold change” value is reported as -0.425.
For RRIRDRPPRLPRPRPRPNPPPRP, the “shrunken log2 fold change” value was 0.2.
For RRIRWRPPRLPRPRPRPETFPRP, the “shrunken log2 fold change” value was 0.0493.
With RRIRRRPPRLPRPRPRPKGIPRP the “shrunken log2 fold change” value was 0.268.
In the case of RRIRRRPPRLPRPRPRPPESPRP, the “shrunken log2 fold change” value is reported as 0.26.
RRIRGRPPRLPRPRPRPTCKPRP was tested, and the “shrunken log2 fold change” value was 0.57.
RRIRGRPPRLPRPRPRPKPPPRP was tested, and the “shrunken log2 fold change” value was 2.28.
RRIRVRPPRLPRPRPRPYRIPRP was tested, and the “shrunken log2 fold change” value was 0.0112.
With RRIRIRPPRLPRPRPRPHLFPRP the “shrunken log2 fold change” value was -0.359.
RRIRWRPPRLPRPRPRPEWSPRP was tested, and the “shrunken log2 fold change” value was 0.0628.
RRIRIRPPRLPRPRPRPIDKPRP was tested, and the “shrunken log2 fold change” value was -0.364.
With RRIRRRPPRLPRPRPRPQAAPRP the “shrunken log2 fold change” value was 0.0105.
For RRIRMRPPRLPRPRPRPTQQPRP, the “shrunken log2 fold change” value was 0.54.
For RRIRSRPPRLPRPRPRPSTAPRP, the “shrunken log2 fold change” value was -0.0171.
In the case of RRIRNRPPRLPRPRPRPPNLPRP, the “shrunken log2 fold change” value is reported as -0.166.
With RRIRHRPPRLPRPRPRPVEGPRP the “shrunken log2 fold change” value was 0.105.
For RRIRERPPRLPRPRPRPCLQPRP, the “shrunken log2 fold change” value was -0.218.
In the case of RRIRARPPRLPRPRPRPFHFPRP, the “shrunken log2 fold change” value is reported as -0.25.
With RRIRMRPPRLPRPRPRPQNSPRP the “shrunken log2 fold change” value was -0.0933.
In the case of RRIRCRPPRLPRPRPRPIEIPRP, the “shrunken log2 fold change” value is reported as -0.223.
RRIRGRPPRLPRPRPRPYMFPRP was tested, and the “shrunken log2 fold change” value was 0.221.
For RRIRIRPPRLPRPRPRPGGEPRP, the “shrunken log2 fold change” value was -0.063.
In the case of RRIRDRPPRLPRPRPRPWNWPRP, the “shrunken log2 fold change” value is reported as 0.0868.
With RRIRMRPPRLPRPRPRPYIVPRP the “shrunken log2 fold change” value was -0.00174.
RRIRFRPPRLPRPRPRPAEAPRP was tested, and the “shrunken log2 fold change” value was 0.254.
With RRIRCRPPRLPRPRPRPIRRPRP the “shrunken log2 fold change” value was 0.119.
RRIRGRPPRLPRPRPRPCRMPRP was tested, and the “shrunken log2 fold change” value was 0.0426.
With RRIRSRPPRLPRPRPRPCGAPRP the “shrunken log2 fold change” value was 0.327.
In the case of RRIRGRPPRLPRPRPRPWGLPRP, the “shrunken log2 fold change” value is reported as 0.0474.
RRIRCRPPRLPRPRPRPGKLPRP was tested, and the “shrunken log2 fold change” value was -0.111.
RRIRNRPPRLPRPRPRPVWAPRP was tested, and the “shrunken log2 fold change” value was 0.599.
RRIRTRPPRLPRPRPRPKYTPRP was tested, and the “shrunken log2 fold change” value was -0.508.
RRIRWRPPRLPRPRPRPGKSPRP was tested, and the “shrunken log2 fold change” value was 0.0772.
With RRIRIRPPRLPRPRPRPIYVPRP the “shrunken log2 fold change” value was -0.24.
For RRIRDRPPRLPRPRPRPDILPRP, the “shrunken log2 fold change” value was 0.111.
For RRIRYRPPRLPRPRPRPVNRPRP, the “shrunken log2 fold change” value was -0.655.
In the case of RRIRKRPPRLPRPRPRPVEPPRP, the “shrunken log2 fold change” value is reported as 0.505.
RRIRERPPRLPRPRPRPRKSPRP was tested, and the “shrunken log2 fold change” value was -0.131.
With RRIRGRPPRLPRPRPRPDDGPRP the “shrunken log2 fold change” value was -0.0284.
For RRIRQRPPRLPRPRPRPNEGPRP, the “shrunken log2 fold change” value was -0.07.
With RRIRCRPPRLPRPRPRPQCQPRP the “shrunken log2 fold change” value was 0.0557.
With RRIRTRPPRLPRPRPRPAHFPRP the “shrunken log2 fold change” value was 0.13.
In the case of RRIRWRPPRLPRPRPRPSHYPRP, the “shrunken log2 fold change” value is reported as -0.557.
In the case of RRIRTRPPRLPRPRPRPRLIPRP, the “shrunken log2 fold change” value is reported as -0.113.
In the case of RRIRGRPPRLPRPRPRPSWAPRP, the “shrunken log2 fold change” value is reported as 0.532.
RRIRFRPPRLPRPRPRPNSTPRP was tested, and the “shrunken log2 fold change” value was -0.671.
In the case of RRIRERPPRLPRPRPRPYVNPRP, the “shrunken log2 fold change” value is reported as 0.0121.
In the case of RRIRARPPRLPRPRPRPSPTPRP, the “shrunken log2 fold change” value is reported as 0.328.
With RRIRTRPPRLPRPRPRPAVIPRP the “shrunken log2 fold change” value was 0.0431.
For RRIRVRPPRLPRPRPRPAFGPRP, the “shrunken log2 fold change” value was 0.18.
RRIRVRPPRLPRPRPRPGLQPRP was tested, and the “shrunken log2 fold change” value was 0.478.
With RRIRHRPPRLPRPRPRPLTDPRP the “shrunken log2 fold change” value was -0.251.
With RRIRLRPPRLPRPRPRPMQIPRP the “shrunken log2 fold change” value was 0.057.
For RRIRIRPPRLPRPRPRPSCCPRP, the “shrunken log2 fold change” value was -0.471.
With RRIRKRPPRLPRPRPRPSGPPRP the “shrunken log2 fold change” value was 0.0366.
RRIRNRPPRLPRPRPRPRIEPRP was tested, and the “shrunken log2 fold change” value was -0.117.
RRIRDRPPRLPRPRPRPPTCPRP was tested, and the “shrunken log2 fold change” value was 0.0486.
With RRIRLRPPRLPRPRPRPKQEPRP the “shrunken log2 fold change” value was -0.00888.
RRIRWRPPRLPRPRPRPCSEPRP was tested, and the “shrunken log2 fold change” value was -0.206.
In the case of RRIRKRPPRLPRPRPRPNCTPRP, the “shrunken log2 fold change” value is reported as 0.335.
In the case of RRIRQRPPRLPRPRPRPRPPPRP, the “shrunken log2 fold change” value is reported as 1.08.
With RRIRTRPPRLPRPRPRPDGVPRP the “shrunken log2 fold change” value was -0.0136.
In the case of RRIRGRPPRLPRPRPRPIEHPRP, the “shrunken log2 fold change” value is reported as 0.125.
With RRIRRRPPRLPRPRPRPLAIPRP the “shrunken log2 fold change” value was 0.0863.
With RRIRWRPPRLPRPRPRPHFQPRP the “shrunken log2 fold change” value was -0.183.
For RRIRNRPPRLPRPRPRPILYPRP, the “shrunken log2 fold change” value was -0.267.
RRIRSRPPRLPRPRPRPCDHPRP was tested, and the “shrunken log2 fold change” value was -0.138.
In the case of RRIRFRPPRLPRPRPRPLEPPRP, the “shrunken log2 fold change” value is reported as -0.199.
For RRIRHRPPRLPRPRPRPREQPRP, the “shrunken log2 fold change” value was 0.628.
RRIRSRPPRLPRPRPRPQMDPRP was tested, and the “shrunken log2 fold change” value was -0.0665.
For RRIRYRPPRLPRPRPRPFRTPRP, the “shrunken log2 fold change” value was -0.0801.
In the case of RRIRLRPPRLPRPRPRPDEVPRP, the “shrunken log2 fold change” value is reported as 0.256.
RRIRDRPPRLPRPRPRPEDRPRP was tested, and the “shrunken log2 fold change” value was 0.0616.
For RRIRVRPPRLPRPRPRPMTSPRP, the “shrunken log2 fold change” value was -0.128.
